Results on one substance are retold here after doi:10.1101/292672.

This experiment concerns the target SARS-CoV S 2P ectodomain (SARS-CoV (Tor2 strain)) (UniProt P59594). Put plainly: cryo-EM structure.

What is called stoichiometry N is the number of molecules, sites or subunits per partner or assembly.

In the case of “SARS-CoV S 2P ectodomain (from UniProt P59594 14-1190) (domain or fragment)”, the stoichiometry N was determined as 3.
